Assay results from publication doi:10.1101/2025.11.11.685192 (bioRxiv, 2025).
Each block holds one molecule with its values, some of them ahead of it.

Legend:
[1] = target: gp130 S187-Y190 deletion mutant, soluble extracellular domain (gp130 ΔSY ECD) (human); test: cryo-EM structure
[2] = target: gp130 S187-Y190 deletion mutant, soluble extracellular domain (gp130 ΔSY ECD) (human); test: SEC + SEC-MALS + native gel or EMSA
[3] = target: gp130 D215G mutant, soluble extracellular domain (gp130 D215G ECD) (human); test: cryo-EM structure
[4] = target: full-length gp130 ΔSY with additional D4-D6 deletion (gp130 ΔSYΔ(D4-D6)) (human) (UniProt P40189); test: cryo-EM structure
[5] = target: gp130 V252G mutant, soluble extracellular domain (gp130 V252G ECD) (human); test: cryo-EM structure
[6] = target: full-length gp130 ΔSY with an additional D1 deletion (gp130 ΔSYΔD1) (human) (UniProt P40189); test: cryo-EM structure
native gel or EMSA = target: the molecule itself; test: native gel or EMSA
cryo-EM structure = target: the molecule itself; test: cryo-EM structure

B1: full-length gp130 S187-Y190 deletion mutant (gp130 ΔSY full-length) (receptor, human, UniProt P40189 23-918, looked up)
chain: ELLDPCGYISPESPVVQLHSNFTAVCVLKEKCMDYFHVNANYIVWKTNHFTIPKEQYTIINRTASSVTFTDIASLNIQLTCNILTFGQLEQNVYGITIISGLPPEKPKNLSCIVNEGKKMRCEWDGGRETHLETNFTLKSEWATHKFADCKAKRDTPTSCTVDYFVNIEVWVEAENALGKVTSDHINFDPVYKVKPNPPHNLSVINSEELSSILKLTWTNPSIKSVIILKYNIQYRTKDASTWSQIPPEDTASTRSSFTVQDLKPFTEYVFRIRCMKEDGKGYWSDWSEEASGITYEDRPSKAPSFWYKIDPSHTQGYRTVQLVWKTLPPFEANGKILDYEVTLTRWKSHLQNYTVNATKLTVNLTNDRYLATLTVRNLVGKSDAAVLTIPACDFQATHPVMDLKAFPKDNMLWVEWTTPRESVKKYILEWCVLSDKAPCITDWQQEDGTVHRTYLRGNLAESKCYLITVTPVYADGPGSPESIKAYLKQAPPSKGPTVRTKKVGKNEAVLEWDQLPVDVQNGFIRNYTIFYRTIIGNETAVNVDSSHTEYTLSSLTSDTLYMVRMAAYTDEGGKDGPEFTFTTPKFAQGEIEAIVVPVCLAFLLTTLLGVLFCFNKRDLIKKHIWPNVPDPSKSHIAQWSPHTPPRHNFNSKDQMYSDGNFTDVSVVEIEANDKKPFPEDLKSLDLFKKEKINTEGHSSGIGGSSCMSSSRPSISSSDENESSQNTSSTVQYSTVVHSGYRHQVPSVQVFSRSESTQPLLDSEERPEDLQLVDHVDGGDGILPRQQYFKQNCSQHESSPDISHFERSKQVSSVNEEDFVRLKQQISDHISQSCGSGQMKMFQEVSAADAFGPGTEGQVERFETVGMEAATDEGMPKSYLPQTVRQGGYMPQ
- stoichiometry N (native gel or EMSA): 2

B2: full-length gp130 A418-F421 deletion mutant (gp130 ΔAF) (receptor, human, UniProt P40189 23-918, looked up)
chain: ELLDPCGYISPESPVVQLHSNFTAVCVLKEKCMDYFHVNANYIVWKTNHFTIPKEQYTIINRTASSVTFTDIASLNIQLTCNILTFGQLEQNVYGITIISGLPPEKPKNLSCIVNEGKKMRCEWDGGRETHLETNFTLKSEWATHKFADCKAKRDTPTSCTVDYSTVYFVNIEVWVEAENALGKVTSDHINFDPVYKVKPNPPHNLSVINSEELSSILKLTWTNPSIKSVIILKYNIQYRTKDASTWSQIPPEDTASTRSSFTVQDLKPFTEYVFRIRCMKEDGKGYWSDWSEEASGITYEDRPSKAPSFWYKIDPSHTQGYRTVQLVWKTLPPFEANGKILDYEVTLTRWKSHLQNYTVNATKLTVNLTNDRYLATLTVRNLVGKSDAAVLTIPQATHPVMDLKAFPKDNMLWVEWTTPRESVKKYILEWCVLSDKAPCITDWQQEDGTVHRTYLRGNLAESKCYLITVTPVYADGPGSPESIKAYLKQAPPSKGPTVRTKKVGKNEAVLEWDQLPVDVQNGFIRNYTIFYRTIIGNETAVNVDSSHTEYTLSSLTSDTLYMVRMAAYTDEGGKDGPEFTFTTPKFAQGEIEAIVVPVCLAFLLTTLLGVLFCFNKRDLIKKHIWPNVPDPSKSHIAQWSPHTPPRHNFNSKDQMYSDGNFTDVSVVEIEANDKKPFPEDLKSLDLFKKEKINTEGHSSGIGGSSCMSSSRPSISSSDENESSQNTSSTVQYSTVVHSGYRHQVPSVQVFSRSESTQPLLDSEERPEDLQLVDHVDGGDGILPRQQYFKQNCSQHESSPDISHFERSKQVSSVNEEDFVRLKQQISDHISQSCGSGQMKMFQEVSAADAFGPGTEGQVERFETVGMEAATDEGMPKSYLPQTVRQGGYMPQ
- stoichiometry N (cryo-EM structure): 2

B3: full-length gp130 P216H mutant (receptor, human, UniProt P40189 23-918, looked up)
chain: ELLDPCGYISPESPVVQLHSNFTAVCVLKEKCMDYFHVNANYIVWKTNHFTIPKEQYTIINRTASSVTFTDIASLNIQLTCNILTFGQLEQNVYGITIISGLPPEKPKNLSCIVNEGKKMRCEWDGGRETHLETNFTLKSEWATHKFADCKAKRDTPTSCTVDYSTVYFVNIEVWVEAENALGKVTSDHINFDHVYKVKPNPPHNLSVINSEELSSILKLTWTNPSIKSVIILKYNIQYRTKDASTWSQIPPEDTASTRSSFTVQDLKPFTEYVFRIRCMKEDGKGYWSDWSEEASGITYEDRPSKAPSFWYKIDPSHTQGYRTVQLVWKTLPPFEANGKILDYEVTLTRWKSHLQNYTVNATKLTVNLTNDRYLATLTVRNLVGKSDAAVLTIPACDFQATHPVMDLKAFPKDNMLWVEWTTPRESVKKYILEWCVLSDKAPCITDWQQEDGTVHRTYLRGNLAESKCYLITVTPVYADGPGSPESIKAYLKQAPPSKGPTVRTKKVGKNEAVLEWDQLPVDVQNGFIRNYTIFYRTIIGNETAVNVDSSHTEYTLSSLTSDTLYMVRMAAYTDEGGKDGPEFTFTTPKFAQGEIEAIVVPVCLAFLLTTLLGVLFCFNKRDLIKKHIWPNVPDPSKSHIAQWSPHTPPRHNFNSKDQMYSDGNFTDVSVVEIEANDKKPFPEDLKSLDLFKKEKINTEGHSSGIGGSSCMSSSRPSISSSDENESSQNTSSTVQYSTVVHSGYRHQVPSVQVFSRSESTQPLLDSEERPEDLQLVDHVDGGDGILPRQQYFKQNCSQHESSPDISHFERSKQVSSVNEEDFVRLKQQISDHISQSCGSGQMKMFQEVSAADAFGPGTEGQVERFETVGMEAATDEGMPKSYLPQTVRQGGYMPQ
- stoichiometry N (cryo-EM structure): 2

B4: full-length gp130 E195-V196 deletion mutant (gp130 ΔEV) (receptor, human, UniProt P40189 23-918, looked up)
chain: ELLDPCGYISPESPVVQLHSNFTAVCVLKEKCMDYFHVNANYIVWKTNHFTIPKEQYTIINRTASSVTFTDIASLNIQLTCNILTFGQLEQNVYGITIISGLPPEKPKNLSCIVNEGKKMRCEWDGGRETHLETNFTLKSEWATHKFADCKAKRDTPTSCTVDYSTVYFVNIWVEAENALGKVTSDHINFDPVYKVKPNPPHNLSVINSEELSSILKLTWTNPSIKSVIILKYNIQYRTKDASTWSQIPPEDTASTRSSFTVQDLKPFTEYVFRIRCMKEDGKGYWSDWSEEASGITYEDRPSKAPSFWYKIDPSHTQGYRTVQLVWKTLPPFEANGKILDYEVTLTRWKSHLQNYTVNATKLTVNLTNDRYLATLTVRNLVGKSDAAVLTIPACDFQATHPVMDLKAFPKDNMLWVEWTTPRESVKKYILEWCVLSDKAPCITDWQQEDGTVHRTYLRGNLAESKCYLITVTPVYADGPGSPESIKAYLKQAPPSKGPTVRTKKVGKNEAVLEWDQLPVDVQNGFIRNYTIFYRTIIGNETAVNVDSSHTEYTLSSLTSDTLYMVRMAAYTDEGGKDGPEFTFTTPKFAQGEIEAIVVPVCLAFLLTTLLGVLFCFNKRDLIKKHIWPNVPDPSKSHIAQWSPHTPPRHNFNSKDQMYSDGNFTDVSVVEIEANDKKPFPEDLKSLDLFKKEKINTEGHSSGIGGSSCMSSSRPSISSSDENESSQNTSSTVQYSTVVHSGYRHQVPSVQVFSRSESTQPLLDSEERPEDLQLVDHVDGGDGILPRQQYFKQNCSQHESSPDISHFERSKQVSSVNEEDFVRLKQQISDHISQSCGSGQMKMFQEVSAADAFGPGTEGQVERFETVGMEAATDEGMPKSYLPQTVRQGGYMPQ
- stoichiometry N (cryo-EM structure): 2

B5: full-length gp130 K173-D177 deletion mutant (gp130 ΔKD) (receptor, human, UniProt P40189 23-918, looked up)
chain: ELLDPCGYISPESPVVQLHSNFTAVCVLKEKCMDYFHVNANYIVWKTNHFTIPKEQYTIINRTASSVTFTDIASLNIQLTCNILTFGQLEQNVYGITIISGLPPEKPKNLSCIVNEGKKMRCEWDGGRETHLETNFTLKSEWATHKFADCTPTSCTVDYSTVYFVNIEVWVEAENALGKVTSDHINFDPVYKVKPNPPHNLSVINSEELSSILKLTWTNPSIKSVIILKYNIQYRTKDASTWSQIPPEDTASTRSSFTVQDLKPFTEYVFRIRCMKEDGKGYWSDWSEEASGITYEDRPSKAPSFWYKIDPSHTQGYRTVQLVWKTLPPFEANGKILDYEVTLTRWKSHLQNYTVNATKLTVNLTNDRYLATLTVRNLVGKSDAAVLTIPACDFQATHPVMDLKAFPKDNMLWVEWTTPRESVKKYILEWCVLSDKAPCITDWQQEDGTVHRTYLRGNLAESKCYLITVTPVYADGPGSPESIKAYLKQAPPSKGPTVRTKKVGKNEAVLEWDQLPVDVQNGFIRNYTIFYRTIIGNETAVNVDSSHTEYTLSSLTSDTLYMVRMAAYTDEGGKDGPEFTFTTPKFAQGEIEAIVVPVCLAFLLTTLLGVLFCFNKRDLIKKHIWPNVPDPSKSHIAQWSPHTPPRHNFNSKDQMYSDGNFTDVSVVEIEANDKKPFPEDLKSLDLFKKEKINTEGHSSGIGGSSCMSSSRPSISSSDENESSQNTSSTVQYSTVVHSGYRHQVPSVQVFSRSESTQPLLDSEERPEDLQLVDHVDGGDGILPRQQYFKQNCSQHESSPDISHFERSKQVSSVNEEDFVRLKQQISDHISQSCGSGQMKMFQEVSAADAFGPGTEGQVERFETVGMEAATDEGMPKSYLPQTVRQGGYMPQ
- stoichiometry N (cryo-EM structure): 2

The next lines start with the values.

- stoichiometry N [1]: 2
- stoichiometry N [2]: 2
Molecule: gp130 S187-Y190 deletion mutant, soluble extracellular domain (gp130 ΔSY ECD) (domain or fragment)

- stoichiometry N [3]: 2
Molecule: gp130 D215G mutant, soluble extracellular domain (gp130 D215G ECD) (domain or fragment)

- stoichiometry N [4]: 2
Molecule: full-length gp130 ΔSY with additional D4-D6 deletion (gp130 ΔSYΔ(D4-D6)) (from UniProt P40189 23-918) (receptor)

- stoichiometry N [5]: 2
Molecule: gp130 V252G mutant, soluble extracellular domain (gp130 V252G ECD) (domain or fragment)

- stoichiometry N [6]: 2
Molecule: full-length gp130 ΔSY with an additional D1 deletion (gp130 ΔSYΔD1) (from UniProt P40189 23-918) (receptor)
